The values that follow come from the RNAGym collection of RNA variant scans (doi:10.7554/elife.80360).

B1: Hairpin Ribozyme (parent)
chain: GUCCUCUUUCACGUGCGCGUGAAAGAGAGAAGUGAACCAGAGAAACACACGUUGUGGUAUAUUACCUGGUA

Variants of B1 are the subject of this data set. The data set can be described thus: self-cleavage, relative activity (ratio to wild type); higher = more cleavage; co-transcriptional.
As to GUCCCCUUUCACGUGCGCGUGAAAGAGAGAAGUGAACCACAGAAACACACGUUGUGGUAUAUUACCUGGUA, the self-cleavage came out at 0.0912. As for GUCCCCUUUCACGUGCGCGUGAAAGAGAGAAGUGAACCAAAGAAACACACGUUGUGGUAUAUUACCUGGUA, the figure is 0.321; as for GUCCCCUUUCACGUGCGCGUGAAAGAGAGAAGUGAACCAUAGAAACACACGUUGUGGUAUAUUACCUGGUA, 0.19. As to GUCCCCUUUCACGUGCGCGUGAAAGAGAGAAGUGAACCAGAGAAACACACGUUGUGGUAUAUUACCUCGUA, the self-cleavage stood at 0.159. As for GUCCCCUUUCACGUGCGCGUGAAAGAGAGAAGUGAACCAGAGAAACACACGUUGUGGUAUAUCACCUGGUA, the figure is 0.286.

As for GUCCGCUUUCACGUGCGCGUGCAAGAGAGAAGUGAACCAGAGAAACACACGUUGUGGUAUAUUACCUGGUA, the self-cleavage was determined as 0.24. As for GUCCGCUUUCACGUGCGCGUGUAAGAGAGAAGUGAACCAGAGAAACACACGUUGUGGUAUAUUACCUGGUA, the figure is 0.176; as for GUCCCCUUUCACGUGCGCGUGAAAGAGAGAAGUGAACCAGAGAAACACACGUUGUGCUAUAUUACCUGGUA, 0.0878. On to GUCCCCUUUCACGUGCGCGUGAAAGAGAGAAGUGAACCAGAGAAACACACGUUGUGAUAUAUUACCUGGUA, for which the self-cleavage worked out at 0.0835.

On to GUCCCCUUUCACGUGCGCGUGAAAGAGAGAAGUGAACCAGAGAAACACACAUUGUGGUAUAUUACCUGGUA, for which the self-cleavage turned out to be 0.737.

In the case of GUCCCCUUUCACGUGCGCGUGAAAGAGAGAAGUGAACCAGAGAAACACACGUUGUGGUAUAAUACCUGGUA, the self-cleavage was 0.118. Under GUCCCCUGUCACGUGCGCGUGAAAGAGAGAAGUGAACCAGAGAAACACACGUUGUGGUAUAUUACCUGGUA stands 0.429; under GUCCGCUUUCACGUGCGCGUGAAAGAGAGAAGUGUACCAGAGAAACACACGUUGUGGUAUAUUACCUGGUA, 0.156; under GUCCGCUUUCACGUGCGCGUGAUAGAGAGAAGUGAACCAGAGAAACACACGUUGUGGUAUAUUACCUGGUA, 0.192. Regarding GUCCGCUUUCACGUGCGCGUGACAGAGAGAAGUGAACCAGAGAAACACACGUUGUGGUAUAUUACCUGGUA, the self-cleavage is 0.431. Under GUCCCCUUUCACGUGCGCGUGAAAGAGAGAAGUGAACCAGAGAAACACACGAUGUGGUAUAUUACCUGGUA stands 0.706.

On to GUCCCCUUUCACGUGCGCGUGAAAGAGAGAAGUGAACCAGAGAAACACACGUUGUGGUAUAUUACCUGUUA, for which the self-cleavage was 0.186. Turning to GUCCCCUUUCACGUGCGCGUGAAAGAGAGAAGUCAACCAGAGAAACACACGUUGUGGUAUAUUACCUGGUA, the self-cleavage came to 1. GUCCCCUUUCACGUGCGCGUGAAAGAGAGAAGUUAACCAGAGAAACACACGUUGUGGUAUAUUACCUGGUA: the self-cleavage came out at 1.45. Under GUCCCCUUUCACGUGCGCGUGAAAGAGAGAAGUGAACCAGAGAAACACACGUUGUCGUAUAUUACCUGGUA stands 0.159; under GUCCCCUUACACGUGCGCGUGAAAGAGAGAAGUGAACCAGAGAAACACACGUUGUGGUAUAUUACCUGGUA, 0.418.

With GUCCCCUUGCACGUGCGCGUGAAAGAGAGAAGUGAACCAGAGAAACACACGUUGUGGUAUAUUACCUGGUA, the self-cleavage worked out at 0.187.

Consider GUCCCCUUUCACGUGCGCGUGAAAGAGAGAAGUGAACCAGAGAAACACACGUUGUGGUAUAUUACCGGGUA, for which the self-cleavage came to 0.245.

With GUCCGCUUUCACGUGCGCGUGAAAGAGGGAAGUGAACCAGAGAAACACACGUUGUGGUAUAUUACCUGGUA, the self-cleavage came to 0.669. With GUCCCCUUUCACGUGCGCGUGAAAGAGAGAAGUGAACCAGAGAAACACACGUUGUGGUACAUUACCUGGUA, the self-cleavage turned out to be 0.549. Consider GUCCCCUUUCACGUGCGCGUGAAAGAGAGAAGUGAACCAGAGAAACACACGUUGUGGUAGAUUACCUGGUA, for which the self-cleavage was 0.236. On to GUCCCCUUUCACGUGCGCGUGAAAGAGAGAAGUGAACCAGAGAAACACACGUGGUGGUAUAUUACCUGGUA, for which the self-cleavage amounted to 0.448. Under GUCCCCUUUCACGUGCGCGUGAAAGAGAGAAGUGAACCAGAGAAACACACGUUGUGGUAUAUUACCUGGGA stands 0.664; under GUCCCCUUUCACGUGCGCGUGAAAGAGAGAAGUGAACCAGAGAAACACACGUUGUGGUAUAUUACCUGGAA, 0.594; under GUCCGCUUUCACGUGCGCGUGAAAGAGAGCAGUGAACCAGAGAAACACACGUUGUGGUAUAUUACCUGGUA, 0.0771. Consider GUCCGCUUUCACGUGCGCGUGAAAGAGAGUAGUGAACCAGAGAAACACACGUUGUGGUAUAUUACCUGGUA, for which the self-cleavage was determined as 0. As for GUCCCCUUUCACGUGCGCGUGAAAGAGAGAAGUGAACCAGAAAAACACACGUUGUGGUAUAUUACCUGGUA, the figure is 0.133. Turning to GUCCGCUUUCACGUGCGCGUGAAAGAGAGAAGUGAGCCAGAGAAACACACGUUGUGGUAUAUUACCUGGUA, the self-cleavage came to 0.166. Regarding GUCCGCUUUCACGUGCGCGUGAAAGAGAGACGUGAACCAGAGAAACACACGUUGUGGUAUAUUACCUGGUA, the self-cleavage came out at 0.091.

In the case of GUCCGCUUUCACGUGCGCGUGAAAGAGAGAGGUGAACCAGAGAAACACACGUUGUGGUAUAUUACCUGGUA, the self-cleavage was 0.17. As for GUCCGCUUUCACGUGCGCGUGAAUGAGAGAAGUGAACCAGAGAAACACACGUUGUGGUAUAUUACCUGGUA, the figure is 0.235; as for GUCCGCUUUCUCGUGCGCGUGAAAGAGAGAAGUGAACCAGAGAAACACACGUUGUGGUAUAUUACCUGGUA, 0.0986; as for GUCCGCUUUCGCGUGCGCGUGAAAGAGAGAAGUGAACCAGAGAAACACACGUUGUGGUAUAUUACCUGGUA, 0.335.
